Experimental data from patent US20090035281A1, “COMBINATION OF INTERLEUKIN-6 ANTAGONISTS AND ANTIPROLIFERATIVE DRUGS” (Universita Degli Studi "Magna Graecia" Di Catanzaro, priority 2005, published 2009).

Tests used:
[1] = system: human IL-6-dependent multiple myeloma (MM) cell line, INA-6; experiment: Detection of apoptosis (annexin V-FITC / propidium iodide flow cytometry), INA-6 cells with exogenous IL-6; assay type: cell-based; settings: INA-6, exogenous IL-6 present, 3 days' exposure
Experimental: To detect the induction of cell death by apoptosis, double staining was performed with annexin V labelled with FITC and propidium iodide (PI). After treating 1×10^6 tumour cell for 48 h, the cells were washed with PBS and resuspended in 100 μl of HEPES buffer containing annexin V-FITC and propidium iodide (PI) (Annexin V-FLUOS staining kit; Roche Diagnostic, Indianapolis, Ind.). After 15 minutes' incubation at room temperature, the cells were analysed using a Coulter Epics XL flow cytometer to detect the presence of an apoptotic cell population staining positive for annexin V-FITC and negative for PI.
IL-6 has been identified as one of the main factors in the growth and survival of MM cells. INA-6 is a human myeloma cell line that requires exogenous IL-6 for growth in vitro (FIG. 1A). […] INA-6 cells were seeded and cultured on 96-well plates in the presence of exogenous IL-6, and then, after 3 days' exposure of the cells to the drugs, cell proliferation and apoptosis were determined.

[2] = system: human IL-6-dependent multiple myeloma (MM) cell line, INA-6; experiment: Cell proliferation assay ([3H]-thymidine incorporation), INA-6 cells with exogenous IL-6; assay type: cell-based; settings: INA-6, exogenous IL-6 present, 3 days' exposure
Experimental: The formation, characterisation and in-vitro culturing of the IL-6-dependent human MM cell line INA-6 is described in Burger, R., et al.; Hematol. J., 2001; 2:42-53. The cells were maintained in RPMI 1640 culture medium (GIBCO, Grand Island, N.Y.) added with 10% foetal calf serum (FCS, Hyclone, Logan, Utah), L-glutamine 2 mM (GIBCO), 100 μg/ml of streptomycin (GIBCO) and 100 U/ml of penicillin (GIBCO) in the presence of 2.5 ng/ml of IL-6 at 37° C. in a 5% CO2 atmosphere
(§1) Cell proliferation was measured by incorporation of [^3H]-thymidine (NEN Life Science Products, Boston, Mass.). Cells (2×10^4 cells/well) were incubated on 96-well culture plates in the presence or absence of 70-80% confluent BMSC at 37° C. with or without the study substance (in wells in triplicate) for 72 h. [^3H]-thymidine (0.5 μCi) was then added to each well for at least 8 h. Cells were collected on glass filters with an automatic cell collector (Cambridge Technology, Cambridge, Mass.) and counted using a Micro-Beta Trilux counter (Wallac, Gaithersburgh, Md.).
IL-6 has been identified as one of the main factors in the growth and survival of MM cells. […] INA-6 cells were seeded and cultured on 96-well plates in the presence of exogenous IL-6, and then, after 3 days' exposure of the cells to the drugs, cell proliferation and apoptosis were determined.

[3] = system: INA-6 cells adhering to bone marrow stromal cells (BMSC); experiment: Cell proliferation of INA-6 cells adhering to BMSC, no exogenous IL-6; assay type: cell-based, human; settings: 70-80% confluent BMSC, no exogenous IL-6, 3 days after treatment
Experimental: as §1
Since the paracrine production of IL-6 occurs when the MM cells adhere to BMSC (Uchiyama, H., et al.; Blood, 1993; 82:3712-3720), the supporting effect of BMSC for the in-vitro growth of INA-6 cells after exposure to the drugs was evaluated. The INA-6 cells were seeded on 70-80% confluent BMSC, in the absence of exogenous IL-6, and the cell proliferation was established 3 days after the treatment.

[4] = system: INA-6 MM cells in human foetal bone implant; experiment: SCID-hu INA-6 mouse model of human MM, tumour growth by serum shuIL-6R; assay type: in vivo; settings: for reduction in serum shuIL-6R (marker of tumour growth) vs control group: s.c., SANT-7 3.3 mg/kg or Dex 1 mg/kg alone, 5 consecutive days; for tolerability in SCID-hu mice: treatment with single agent
Experimental: Male SCID C-17 mice aged from six to eight weeks (Taconic Germany, N.Y.) were housed and monitored in our Animal Research Facility. All the experimental procedures and protocols were approved by the Institutional Committee on the Treatment and Use of Animals. Human foetal femur transplants were implanted in SCID (SCID-hu) mice, as described in Urashima, M., et al.; Blood, 1997; 90(2): 754-65; Tassone, P., et al.; Blood, 2004. Four weeks after implantation, 2.5×10^6 INA-6 MM cells in 50 μl of PBS were injected into the foetal bone implant in the SCID-hu hosts. Serum levels of the interleukin-6 soluble receptor (shuIL-6R) (R & D Systems Inc., Minneapolis, Minn.) were monitored in the mice.
(§2) In these mice serum shuIL-6R was measured as a marker of tumour growth and disease severity, since it is released by the INA-6 cells. First, the pharmacokinetics of SANT-7 was determined.

[5] = system: purified CD34+ HPC; experiment: Clonogenic progenitor assays in methylcellulose; assay type: cell-based, human; settings: for CFC-GM: SANT-7 200 ng/ml, Dex 10^-5 M; for Total: total colonies
Description: (§3) Peripheral blood mobilised CD34^+ HPC were isolated from leukapheresis products of patients with haematopoietic and non-haematopoietic tumours, treated with high-dose chemotherapy and G-CSF or GM-CSF. Peripheral blood mononuclear cells were obtained by centrifugation across a Ficoll density gradient (Seromed, Berlin, Germany), washed and submitted to positive selection using the CD34 Progenitor Cell Isolation Kit (Miltenyi Biotech, Bergish Gladbach, Germany). In brief, CD34^+ HPC were magnetically labelled indirectly using a primary monoclonal antibody conjugated with a hapten and an anti-hapten antibody coupled with MACS MicroBeads (Miltenyi). The labelled cells were subsequently enriched with the MiniMACS magnetic field.
The clonogenic progenitor assays were carried out in methylcellulose as described previously with minor modifications. In brief, 1×10^3 freshly isolated CD34^+ HCP were seeded in IMDM (GIBCO) containing 1% methylcellulose, 30% foetal calf serum (Hyclone), 1% bovin serum albumin (Sigma), L-glutamine 2 mM (GIBCO) and 2β-mercaptoethanol 10^−4 M (Stemcell Technologies Inc., Vancouver, Canada). To induce granulomonocytic or erythroid differentiation, the cells were stimulated with IL-3 (50 ng/ml), GM-CSF (100 ng/ml), G-CSF (100 ng/ml) or IL-3 (50 ng/ml), GM-CSF (100 ng/ml), SCF (50 ng/ml) ed Epo (3 U/ml), respectively. […] 1 ml aliquots were plated in triplicate on 35 mm culture plates (Falcon) at 37° C. in a 5% CO2 humidified atmosphere. After 14 days' culture, the granulomonocytic colonies (CFC-GM) and the erythroid colonies (BFU-E) were counted by examining the cultures under an inverted microscope.

[6] = system: human CD34+ Haematopoietic Progenitor Cells (HPC); experiment: Liquid culture of CD34+ HPC, flow cytometric cell cycle (DNA content, PI) analysis; assay type: cell-based; settings: 6 days liquid culture with haemopoietins + IL-6
Description: as §3

[7] = In-vivo kinetics of SANT-7 after s.c. injection; set-up: species or system SCID-hu mouse
Experimental: A) Sant-7 (3.3 mg/kg) was injected s.c. into a SCID-hu mouse and its kinetics was evaluated with serial determinations of IL-6 in serum. B) Tumour growth in SCID-hu mice implanted with INA-6 cells was monitored with serial measurements of shuIL-6R. […] P values were obtained by comparison between the control groups and the groups treated with the combination. The data were expressed as mean±SE.
as §2

[8] = single s.c. injection 3.3 mg/kg

| Molecule | death by apoptosis in MM cells [1] | growth inhibition of MM cells [2] | growth inhibition of INA-6 cells adhering to BMSC [3] | reduction in serum shuIL-6R (marker of tumour growth) vs control group [4] | tolerability in SCID-hu mice [4] | effect on generation of CFC-GM and BFU-E in response to haemopoietins ([5]; CD34+ HPC, clonogenic assays) | CFC-GM ([5]; colonies, IL3 + GM + G + IL6 (granulomonocytic differentiation), 1 × 10^3 cells/plate, day 14, mean ± SD) | CFC-GM ([5]; colonies, IL3 + GM + SCF + Epo + IL6 (erythroid differentiation), 1 × 10^3 cells/plate, day 14, mean ± SD) | BFU-E ([5]; colonies, IL3 + GM + SCF + Epo + IL6, 1 × 10^3 cells/plate, day 14, mean ± SD) | Total ([5]; IL3 + GM + G + IL6, 1 × 10^3 cells/plate, day 14, mean ± SD) | Total ([5]; IL3 + GM + SCF + Epo + IL6, 1 × 10^3 cells/plate, day 14, mean ± SD) | apoptosis rate of CD34+ cells [6] | effect on cell proliferation (cell cycle) of CD34+ cells [6] | time drug remains in circulation after the injection [7, 8] | time to SANT-7 serum peak [7, 8] | clearance ([7]; subcutaneous administration) |
| --- | --- | --- | --- | --- | --- | --- | --- | --- | --- | --- | --- | --- | --- | --- | --- | --- |
| C[C@@H]1C[C@H]2[C@@H]3CCC4=CC(=O)C=C[C@]4(C)[C@@]3(F)[C@@H](O)C[C@]2(C)[C@@]1(O)C(=O)CO [Dex, dexamethasone, reference compound] | nor induced apoptosis | neither modified cell proliferation | activity was inhibited | did not induce any significant reduction | well tolerated |  |  |  |  |  |  |  |  |  |  |  |
| SANT-7: superantagonist of the IL-6 receptor, molecular variant of IL-6 totally incapable of binding gp130, sequence SEQ ID No. 4 (protein, listed as Homo sapiens) PVPPGEDSKDVAAPHRQPLTSSERIDKQIRDILDFISALRKETCNKSNMCESSKEADAFWNLNLPKMAEKDGCFYKGFNEETCLVKIITGLLEFEVYLEYLQNRFESSEEQARAVQMRTKDLIQFLQKKAKNLDAITTPDPTTNASLLTKLQAQNQWLQDMTTHLILRSFKEFLIRSLRALRAM | high rates | high rates of growth inhibition | reduced the efficacy of the growth inhibition | did not induce any significant reduction | well tolerated | does not interfere appreciably | 73 ± 2 | 21 ± 1 | 50 ± 2 | 73 ± 2 | 71 ± 1 | No significant apoptosis rate | does not significantly affect cell proliferation | 4 h | 30 min | very rapid clearance |
